Target: the molecule itself
Experiment: circular dichroism of PilA19 with SDS at pH 3.8; 222 nm/208 nm intensity ratio of 1

B1: PilA19 (truncated PilA pilin peptide of Geobacter sulfurreducens lacking the first 19 N-terminal amino acids of the mature PilA) (peptide)
peptide: AIPQFSAYRVKAYNSAASSDLRNLKTALESAFADDQTYPPES
notes: Recombinant peptide made in E. coli as a CBD-intein fusion and released by DTT-induced intein splicing; 42 residues; It self-assembles into a fibre; also called PilA19 peptide; recombinant PilA19
  binding result: binds

Source: patent US20210070811A1 (BOARD OF TRUSTEES OF MICHIGAN STATE UNIVERSITY, published 2021)
